Residue numbers refer to the chain shown, from its start. Each block holds one binder with its values, some of them ahead of it.
Molecular target: T1, Hmm-hTFRC (REGN2431), monomeric human transferrin receptor ectodomain with N-terminal hexahistidine-myc-myc … (human, UniProt P02786 89-760)
T1 construct: also called hmm.hTfR(C89-F763); His-myc-myc-hTFRC ecto
Assay: blocking ELISA, supernatant; Hmm-hTFRC binding to immobilized human holo-Tf
Procedure: In the blocking assay, the anti-human Transferrin goat IgG polyclonal antibody (anti-hTf pAb) was passively absorbed at a concentration of 2 micrograms/mL in PBS on a 96-well microtiter plate overnight at 4° C. […] To the same plate, human holo-Tf was then added at a concentration of 1 micrograms/mL in PBS+0.5% BSA for 2 hours at room temperature. […] After a 1-hour incubation, the mixtures were transferred to the human holo-Tf microtiter plates. […] The plates were developed using TMB substrate solution according to the manufacturer's recommended procedure and absorbance at 450 nm was measured on a Victor™ Multilabel Plate Reader.
The ability of the anti-TfR antibody to block human TFRC binding to human holo-Tf was evaluated using an ELISA-based blocking assay.

T1 sequence (P02786 other isoform, or with tags, fused parts or gaps): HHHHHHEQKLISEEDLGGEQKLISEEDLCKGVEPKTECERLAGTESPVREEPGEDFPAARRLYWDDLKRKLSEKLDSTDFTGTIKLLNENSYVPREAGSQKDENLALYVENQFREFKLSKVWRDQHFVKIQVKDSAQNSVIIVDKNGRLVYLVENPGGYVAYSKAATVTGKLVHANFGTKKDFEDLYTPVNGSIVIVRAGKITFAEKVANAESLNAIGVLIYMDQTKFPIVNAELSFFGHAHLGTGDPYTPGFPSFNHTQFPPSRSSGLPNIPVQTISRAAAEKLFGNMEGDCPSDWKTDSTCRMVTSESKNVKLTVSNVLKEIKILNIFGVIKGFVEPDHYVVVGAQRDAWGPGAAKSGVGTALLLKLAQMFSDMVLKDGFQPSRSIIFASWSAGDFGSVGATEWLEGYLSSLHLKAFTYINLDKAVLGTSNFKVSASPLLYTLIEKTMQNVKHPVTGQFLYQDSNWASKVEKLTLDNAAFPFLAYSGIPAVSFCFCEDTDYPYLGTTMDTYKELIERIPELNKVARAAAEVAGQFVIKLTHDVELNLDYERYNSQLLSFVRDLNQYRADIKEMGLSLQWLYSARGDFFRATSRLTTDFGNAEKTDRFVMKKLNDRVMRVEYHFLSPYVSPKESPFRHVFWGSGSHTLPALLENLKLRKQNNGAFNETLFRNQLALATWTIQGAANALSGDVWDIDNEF

% Blocking: 9%
B1: 69331 Fab (Fab, V domains shown)
VH: QVQLVESGGGVVQPGRSLRLSCIASGFTFSVYGIHWVRQAPGKGLEWMAVISHDGNIKHYADSVKGRFTISRDNSKNTLYLQINSLRTEDTAVYYCAKDTWNSLDTFDIWGQGTMVTVSS
VL: DIQLTQSPSSLSASVGDRVTITCWASQGISSYLAWYQQKPGKAPKLLIYAASTLQSGVPSRFSGSGSGTEFTLTISSLQPEDFATYYCQQLNSYPLTFGGGTKVEIKR
notes: CHO supernatant

% Blocking: 12%
B2: 69307 Fab (Fab, V domains shown)
VH: EVQLVESGGGLVQPGGSLRLSCTASGFTFSNYWMTWVRQAPGKGLEWVANIKEDGSEKEYVDSVKGRFTISRDNAKNSLYLQMNSLRGEDTAVYYCARDGEQLVDYYYYYVMDVWGQGTTVTVSS
VL: DIQMTQSPSSVSASVGDRVTITCRASQGISSWLAWYQQKPGKAPKLLIYAASSLQSGVPSRFSGSGSGTDFTLTISSLQPEDFATYYCQKADSLPYAFGQGTKLEIKR
notes: CHO supernatant

% Blocking: 8%
B3: 69329 Fab (Fab, V domains shown)
VH: B2 VH with T23A, E59D
VL: B2 VL with D92N, L94F, A97T
notes: CHO supernatant

% Blocking: 4%
B4: 69263 scFv (VK-VH) (scFv)
scFv: DIQMTQSPSSLSASVGDRVTITCRASQDISHYSAWYQQKPGKLPNLLIYAASTLQSGVPSRFSGSGSGTDFSLTTSSLQPEDVATYYCQKYNSVPLTFGGGTKVEIKGGGGSGGGGSGGGGSEVQLVESGGGLVQPGRSLRLSCAVSGFTFDDYAMHWVRQAPGKGLEWVSGISWNSGTRGYADSVKGRFTISRDNAKNSLYLQMNSLRGEDTALYYCVKDITISPNYYGMDVWGQGTTVTVSS
notes: CHO supernatant; Vk-3xG4S-Vh

% Blocking: 25%
B5: 69329 scFv (VH-VK) (scFv)
chain: EVQLVESGGGLVQPGGSLRLSCAASGFTFSNYWMTWVRQAPGKGLEWVANIKEDGSEKDYVDSVKGRFTISRDNAKNSLYLQMNSLRGEDTAVYYCARDGEQLVDYYYYYVMDVWGQGTTVTVSSDIQMTQSPSSVSASVGDRVTITCRASQGISSWLAWYQQKPGKAPKLLIYAASSLQSGVPSRFSGSGSGTDFTLTISSLQPEDFATYYCQKANSFPYTFGQGTKLEIK

% Blocking: 3%
B6: 69305 scFv (VH-VK) (scFv)
chain: QVQLVESGGGVVQPGRSLRLSCAASGFTFSSYGMHWVRQAPGKGLEWVAVIWYDGSNKYYADSVKGRFTISRDISKNTLYLQMNSLRAEDTAVYYCAGQLDLFFDYWGQGTLVTVSSDIQMTQSPSSLSASVGDRVTITCRASQSIDRYLNWYRQKPGKAPKLLIYTTSSLQSGVPSRFSGSGSGTDFTLTLSSLQPEDFATYYCQQSYSPPLTFGGGTKVEIK

% Blocking: 11%
B7: 69261 Fab (Fab, V domains shown)
VH: QVQLVESGGGLVKPGGSLRLSCAASGFTFSVYYMNWIRQAPGKGLEWVSYISSSGSTIYYADSVKGRFTISRDNAKNSLYLQMNSLRAEDTAVYYCGREGYSGTYSYYGMDVWGQGTTVTVSS
VL: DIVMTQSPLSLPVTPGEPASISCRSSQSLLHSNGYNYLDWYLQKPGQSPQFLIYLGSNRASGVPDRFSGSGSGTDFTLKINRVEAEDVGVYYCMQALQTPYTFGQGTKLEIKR
notes: CHO supernatant

% Blocking: -2%
B8: 69326 Fab (Fab, V domains shown)
VH: EVQLVESGGGLVQPGGSLRLSCAVSGFIFSSYEMNWVRQAPGKGLEWVSYISSSGSTIFYADSVKGRFTISRDNAKNSLYLQMNSLRAEDTAVYYCVSGVVLFDVWGQGTMVTVSS
VL: EIVMTQSPATLSVSPGERATLSCRASQSVSSNFAWYQQKPGQAPRLLIYSASSRATGIPVRFSGSGSGTEFTLTISSLQSEDFAVYYCQQYNIWPRTFGQGTKVEIKR
notes: CHO supernatant

% Blocking: 12%
B9: 69326 scFv (VK-VH) (scFv)
scFv: EIVMTQSPATLSVSPGERATLSCRASQSVSSNFAWYQQKPGQAPRLLIYSASSRATGIPVRFSGSGSGTEFTLTISSLQSEDFAVYYCQQYNIWPRTFGQGTKVEIKGGGGSGGGGSGGGGSEVQLVESGGGLVQPGGSLRLSCAVSGFIFSSYEMNWVRQAPGKGLEWVSYISSSGSTIFYADSVKGRFTISRDNAKNSLYLQMNSLRAEDTAVYYCVSGVVLFDVWGQGTMVTVSS
notes: CHO supernatant; Vk-3xG4S-Vh

% Blocking: 12%
B10: 69307 scFv (VK-VH) (scFv)
scFv: DIQMTQSPSSVSASVGDRVTITCRASQGISSWLAWYQQKPGKAPKLLIYAASSLQSGVPSRFSGSGSGTDFTLTISSLQPEDFATYYCQKADSLPYAFGQGTKLEIKGGGGSGGGGSGGGGSEVQLVESGGGLVQPGGSLRLSCTASGFTFSNYWMTWVRQAPGKGLEWVANIKEDGSEKEYVDSVKGRFTISRDNAKNSLYLQMNSLRGEDTAVYYCARDGEQLVDYYYYYVMDVWGQGTTVTVSS
notes: CHO supernatant; Vk-3xG4S-Vh

% Blocking: 19%
B11: 69329 scFv (VK-VH) (scFv)
scFv: B10 scFv with D92N, L94F, A97T, T145A, E181D
notes: CHO supernatant; Vk-3xG4S-Vh

% Blocking: 14%
B12: 69263 Fab (Fab, V domains shown)
VH: EVQLVESGGGLVQPGRSLRLSCAVSGFTFDDYAMHWVRQAPGKGLEWVSGISWNSGTRGYADSVKGRFTISRDNAKNSLYLQMNSLRGEDTALYYCVKDITISPNYYGMDVWGQGTTVTVSS
VL: DIQMTQSPSSLSASVGDRVTITCRASQDISHYSAWYQQKPGKLPNLLIYAASTLQSGVPSRFSGSGSGTDFSLTTSSLQPEDVATYYCQKYNSVPLTFGGGTKVEIKR
notes: CHO supernatant

% Blocking: 14%
B13: 69263 scFv (VH-VK) (scFv)
chain: EVQLVESGGGLVQPGRSLRLSCAVSGFTFDDYAMHWVRQAPGKGLEWVSGISWNSGTRGYADSVKGRFTISRDNAKNSLYLQMNSLRGEDTALYYCVKDITISPNYYGMDVWGQGTTVTVSSDIQMTQSPSSLSASVGDRVTITCRASQDISHYSAWYQQKPGKLPNLLIYAASTLQSGVPSRFSGSGSGTDFSLTTSSLQPEDVATYYCQKYNSVPLTFGGGTKVEIK

% Blocking: 5%
B14: 69305 scFv (VK-VH) (scFv)
scFv: DIQMTQSPSSLSASVGDRVTITCRASQSIDRYLNWYRQKPGKAPKLLIYTTSSLQSGVPSRFSGSGSGTDFTLTLSSLQPEDFATYYCQQSYSPPLTFGGGTKVEIKGGGGSGGGGSGGGGSQVQLVESGGGVVQPGRSLRLSCAASGFTFSSYGMHWVRQAPGKGLEWVAVIWYDGSNKYYADSVKGRFTISRDISKNTLYLQMNSLRAEDTAVYYCAGQLDLFFDYWGQGTLVTVSS
notes: CHO supernatant; Vk-3xG4S-Vh

% Blocking: 12%
B15: 69323 Fab (Fab, V domains shown)
VH: EVQLVESGGGLVQPGRSLRLSCAASGFTFDDYAMHWVRQAPGKGLEWVSGISWNSGYIGYADSVKGRFTISRDNAENSLHLQMNSLRAEDTALYYCARGGSTLVRGVKGGYYGMDVWGQGTTVTVSS
VL: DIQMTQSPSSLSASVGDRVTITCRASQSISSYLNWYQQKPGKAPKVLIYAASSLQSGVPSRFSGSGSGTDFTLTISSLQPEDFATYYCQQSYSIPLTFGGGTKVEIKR
notes: CHO supernatant

% Blocking: 18%
B16: 69326 scFv (VH-VK) (scFv)
chain: EVQLVESGGGLVQPGGSLRLSCAVSGFIFSSYEMNWVRQAPGKGLEWVSYISSSGSTIFYADSVKGRFTISRDNAKNSLYLQMNSLRAEDTAVYYCVSGVVLFDVWGQGTMVTVSSEIVMTQSPATLSVSPGERATLSCRASQSVSSNFAWYQQKPGQAPRLLIYSASSRATGIPVRFSGSGSGTEFTLTISSLQSEDFAVYYCQQYNIWPRTFGQGTKVEIK

% Blocking: 3%
B17: 69305 Fab (Fab, V domains shown)
VH: QVQLVESGGGVVQPGRSLRLSCAASGFTFSSYGMHWVRQAPGKGLEWVAVIWYDGSNKYYADSVKGRFTISRDISKNTLYLQMNSLRAEDTAVYYCAGQLDLFFDYWGQGTLVTVSS
VL: DIQMTQSPSSLSASVGDRVTITCRASQSIDRYLNWYRQKPGKAPKLLIYTTSSLQSGVPSRFSGSGSGTDFTLTLSSLQPEDFATYYCQQSYSPPLTFGGGTKVEIKR
notes: CHO supernatant

— patent US20250049896A1 (Regeneron, published 2025)
